Where no end group is shown, it is not given here.
T1: human acylamino-acid-releasing enzyme (AARE or APEH) (human, UniProt P13798 1-732, limits assumed)
T1 sequence (looked up): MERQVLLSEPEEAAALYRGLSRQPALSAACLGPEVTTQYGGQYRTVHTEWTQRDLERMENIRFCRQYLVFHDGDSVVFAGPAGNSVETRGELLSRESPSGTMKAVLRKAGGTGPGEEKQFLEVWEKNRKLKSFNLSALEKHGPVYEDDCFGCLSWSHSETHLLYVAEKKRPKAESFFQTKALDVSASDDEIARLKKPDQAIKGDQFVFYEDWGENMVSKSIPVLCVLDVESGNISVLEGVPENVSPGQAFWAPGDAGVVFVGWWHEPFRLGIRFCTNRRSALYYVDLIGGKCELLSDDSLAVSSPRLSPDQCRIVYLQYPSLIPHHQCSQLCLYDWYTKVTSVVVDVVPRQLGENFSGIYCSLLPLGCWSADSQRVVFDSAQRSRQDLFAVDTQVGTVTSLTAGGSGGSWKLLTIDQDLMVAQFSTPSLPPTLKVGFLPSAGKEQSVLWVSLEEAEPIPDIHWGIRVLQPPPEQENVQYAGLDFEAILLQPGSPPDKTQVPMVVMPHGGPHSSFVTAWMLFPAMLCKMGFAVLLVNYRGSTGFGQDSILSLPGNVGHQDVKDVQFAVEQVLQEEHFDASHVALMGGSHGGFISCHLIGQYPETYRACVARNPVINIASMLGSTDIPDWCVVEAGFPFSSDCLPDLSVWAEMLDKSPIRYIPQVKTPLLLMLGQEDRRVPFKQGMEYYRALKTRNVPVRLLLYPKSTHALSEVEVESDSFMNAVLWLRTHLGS

T2: porcine acylamino-acid-releasing enzyme (AARE or APEH) (porcine, UniProt P19205 1-732, limits assumed)
T2 sequence (looked up): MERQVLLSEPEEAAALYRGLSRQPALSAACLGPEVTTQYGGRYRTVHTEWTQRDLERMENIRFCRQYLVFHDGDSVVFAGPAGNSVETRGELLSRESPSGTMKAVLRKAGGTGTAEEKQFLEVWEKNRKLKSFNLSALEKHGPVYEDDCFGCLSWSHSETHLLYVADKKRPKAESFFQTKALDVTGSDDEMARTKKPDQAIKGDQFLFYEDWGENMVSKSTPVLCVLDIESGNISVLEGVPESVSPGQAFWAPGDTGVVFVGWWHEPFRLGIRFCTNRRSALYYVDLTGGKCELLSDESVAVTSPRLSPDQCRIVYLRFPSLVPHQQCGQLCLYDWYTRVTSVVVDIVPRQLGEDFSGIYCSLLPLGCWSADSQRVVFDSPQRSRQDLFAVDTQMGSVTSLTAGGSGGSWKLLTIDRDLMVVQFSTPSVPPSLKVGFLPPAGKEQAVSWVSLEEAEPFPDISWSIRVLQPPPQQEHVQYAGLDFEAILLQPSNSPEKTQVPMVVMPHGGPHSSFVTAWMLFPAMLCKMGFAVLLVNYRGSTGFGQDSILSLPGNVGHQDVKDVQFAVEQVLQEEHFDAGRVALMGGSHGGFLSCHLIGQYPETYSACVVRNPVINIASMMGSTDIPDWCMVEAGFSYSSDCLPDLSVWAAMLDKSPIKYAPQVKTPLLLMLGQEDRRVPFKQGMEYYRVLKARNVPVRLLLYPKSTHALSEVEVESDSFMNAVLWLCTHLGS


What was measured:
[1] = molecular target: T3, bovine alpha-chymotrypsin (bovine, UniProt P00766 1-13; P00766 16-146; P00766 149-245); experiment: cell-based or functional assay
porcine elastase [2] = molecular target: T4, porcine elastase (porcine, UniProt P00772 27-266); experiment: cell-based or functional assay
T4 sequence (P00772 27-266 limits assumed): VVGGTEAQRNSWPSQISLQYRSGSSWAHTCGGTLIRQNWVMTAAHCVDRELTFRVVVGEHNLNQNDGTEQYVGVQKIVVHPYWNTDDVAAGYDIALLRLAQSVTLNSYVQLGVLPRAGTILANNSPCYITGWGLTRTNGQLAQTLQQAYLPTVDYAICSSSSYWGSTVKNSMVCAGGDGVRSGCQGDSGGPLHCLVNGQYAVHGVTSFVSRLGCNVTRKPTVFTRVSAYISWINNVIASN

[3] = molecular target: T1, human acylamino-acid-releasing enzyme …; experiment: cell-based or functional assay
[4] = molecular target: T3, bovine alpha-chymotrypsin; experiment: cell-based or functional assay; remark: listed apart in the source
porcine elastase [5] = molecular target: T4, porcine elastase; experiment: cell-based or functional assay; remark: listed apart in the source
porcine elastase [6] = molecular target: T4, porcine elastase; experiment: enzyme inhibition kinetics, double reciprocal plot
[7] = molecular target: T3, bovine alpha-chymotrypsin; experiment: enzyme inhibition kinetics, double reciprocal (Lineweaver-Burk) plot, competitive inhibition
Experimental: The reciprocals of the rate of the substrate hydrolysis for each inhibitor concentration were plotted against the reciprocals of the substrate concentrations. Ki was determined from the formula as per the competitive type of inhibition.

[8] = molecular target: T1, human acylamino-acid-releasing enzyme …; experiment: cell-based or functional assay; remark: listed apart in the source
[9] = molecular target: T2, porcine acylamino-acid-releasing enzyme …; experiment: cell-based or functional assay
[10] = molecular target: T2, porcine acylamino-acid-releasing enzyme …; experiment: enzyme inhibition kinetics, Lineweaver-Burk plot, competitive inhibition
[11] = molecular target: T2, porcine acylamino-acid-releasing enzyme …; experiment: cell-based or functional assay; remark: listed apart in the source
[12] = molecular target: T2, porcine acylamino-acid-releasing enzyme …; experiment: enzyme inhibition kinetics with N-acetyl-Ala-pNA as substrate

Binder	IC50 value (50% inhibitory concentration) [1] [nM]	IC50 value (porcine elastase [2]) [nM]	IC50 value at 37° C. [3] [nM]	IC50 [4] [nM]	IC50 (porcine elastase [5]) [nM]	Ki (porcine elastase [6]) [nM]	Ki [7] [nM]	IC50 [8] [nM]	IC50 [9] [nM]	Ki [10] [nM]	IC50 values [11] [nM]	Ki [12] [nM]
recombinant S. solfataricus inhibitor Sso0767 (SsCEI) (other, The filling uses Sso0767, Sso1273 and SsCEI for the same protein; also called Sso1273; not shown: C-terminal His tag from expression vector pET-28) MNSESIYSMRVVSSAFKNEDFIPIKYTCDGQDLSPELEWDLVTNAKSYAIIVEDPDAPGGTFIHWVIYNITTNRLPEGVPRLYKSQYGVQGVNDFGNIGYNGPCPPKTHPPHRYYFYVYAIDTILLEIKNINADKLKSLMEGHGIERGFVMGKYKRK	100	150	20	25	40	100	80					
TILAEIKNINAD-NH2 (also called Peptide 4) [Compound 4 or SsCEI 4]								35000	35000	4000		
YAIDTILAEIKNINAD-NH2 (also called Peptide 3) [Compound 3 or SsCEI 3]								25000	25000		20000	20000
